Source: patent US8822407B2, “Preparation of conjugates comprising adenine derivatives and allergenic proteins and their use for specific immunotherapy of allengenic diseases” (Universita' Degli Studi di Firenze, priority 2010, dated 2014)

Assays:
[1] = molecular target: T1, TLR8 (Homo sapiens, UniProt Q9NR97); assay: TLR8-transfected HEK293 cells, NF-kB luciferase reporter; assay type: cell-based; settings: R-848 2 μg/ml; data not shown
T1 construct: expressed in transfected cells; host or cells: HEK293 (transient Nucleofection, Amaxa)
T1 sequence (Q9NR97 27-1041): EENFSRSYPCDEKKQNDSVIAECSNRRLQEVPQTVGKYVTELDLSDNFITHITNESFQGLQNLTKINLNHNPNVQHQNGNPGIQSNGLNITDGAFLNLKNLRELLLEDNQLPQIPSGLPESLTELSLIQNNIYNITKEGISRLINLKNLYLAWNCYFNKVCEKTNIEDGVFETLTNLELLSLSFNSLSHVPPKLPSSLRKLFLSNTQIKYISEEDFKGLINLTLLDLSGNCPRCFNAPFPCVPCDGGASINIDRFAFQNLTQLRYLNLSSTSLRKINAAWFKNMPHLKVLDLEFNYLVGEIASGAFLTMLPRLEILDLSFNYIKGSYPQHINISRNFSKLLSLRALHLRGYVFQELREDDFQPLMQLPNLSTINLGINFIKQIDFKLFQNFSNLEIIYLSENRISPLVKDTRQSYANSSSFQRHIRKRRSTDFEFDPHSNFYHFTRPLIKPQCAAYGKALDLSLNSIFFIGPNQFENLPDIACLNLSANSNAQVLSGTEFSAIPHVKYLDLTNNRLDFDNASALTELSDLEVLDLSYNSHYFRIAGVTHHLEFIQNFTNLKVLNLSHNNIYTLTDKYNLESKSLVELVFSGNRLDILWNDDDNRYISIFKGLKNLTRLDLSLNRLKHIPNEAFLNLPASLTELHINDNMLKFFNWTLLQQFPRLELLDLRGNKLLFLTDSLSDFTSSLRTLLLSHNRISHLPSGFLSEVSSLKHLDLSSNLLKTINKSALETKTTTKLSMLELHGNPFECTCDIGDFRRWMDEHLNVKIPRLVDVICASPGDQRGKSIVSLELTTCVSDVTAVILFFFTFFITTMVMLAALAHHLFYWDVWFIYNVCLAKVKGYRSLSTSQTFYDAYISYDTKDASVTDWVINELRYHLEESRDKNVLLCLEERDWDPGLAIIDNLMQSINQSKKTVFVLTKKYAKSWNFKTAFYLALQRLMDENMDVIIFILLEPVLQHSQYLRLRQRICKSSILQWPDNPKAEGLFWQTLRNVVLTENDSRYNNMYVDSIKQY
Method: HEK293 cells are detached by trypsin from the plastic surface of the culture bottle, extensively washed with calcium and magnesium-free PBS, counted and adjusted at the concentration 1×10^6 cells/tube in polypropylene V-bottomed tubes. After the final wash, the cells are pelleted and 100 μl transfection buffer (Amaxa) is added together with […], TLR7, TLR8 or TLR9-encoding and ELAM-1 promoter NF-kB luciferase reporter plasmids. The mixture thus obtained is transferred in special cuvettes and transient transfection is obtained in a special apparatus which is able to directly introduce genetic material into the nucleus (Nucleofection®, Amaxa GmbH). The cells are then recovered and cultured at 1×10^5/ml in 48-flat bottomed plates in E-MEM medium plus 5% foetal calf serum for 18 hrs. […] Finally the luciferase activity is measured in the cellular lysates by a commercial kit (Promega).

[2] = tested on: allergen-specific T cell clones; assay: Functional phenotype of allergen-specific T cell clones; assay type: cell-based, human; settings: for Clonal Efficiency (%): T cell lines derived in the presence of the stimulus
From the text: For the functional analysis of T cell clones specific for nDer p2 and nDer p2-con j, T cell lines are initially derived from MNC of two atopic donors (G. E. and M. A.) affected by bronchial asthma and allergic rhinitis and sensitized to Dermatophagoides pteronyssinus, in the presence of nDer p2- or its respective conjugate nDer p2-conj. […] 28 allergen-specific T cell clones are obtained from T cell lines specific for nDer p2 from donor two and 37 from donor one whereas 28 clones are obtained from T cell lines derived in the presence of nDer p2-conj from both donors.
The allergen-specific clones obtained in the different experimental conditions have been then assessed for their ability to produce IL-4 ([…]) and IFN-gamma (pg/ml) in the culture supernatants after polyclonal stimulation with PMA and anti-CD3 monoclonal antibody.

[3] = tested on: CRTH2 cells; assay: Phenotype of allergen-specific CRTH2 cells; assay type: cell-based, human; settings: allergen 10 μg/ml, PMA and ionomicin
Method: Mononuclear cells from peripheral blood (MNC) are isolated by density gradient (Ficoll-Hypaque) using buffy coats from Dermatophagoides pteronyssinus-sensitized donors (Servizio Immunotrasfusionale e terapie cellulari, Azienda Ospedaliero Universitaria Pediatrica A. Meyer, Firenze). 500×10^6 MNC are separated by the addition of 500 μl anti-CRTH2 monoclonal antibody for 20 min at room temperature, then extensively washed and incubated again with a secondary polyclonal antibody bound to iron microbeads and finally positively selected on a magnetic column (LS column). 10×10^6 cells are recovered by positive selection, extensively washed with sterile calcium and magnesium-free PBS buffer and cultured at the concentration 1×10^6/ml/well in complete medium plus 5% human AB serum in 24-flat bottomed plates. As stimulants, unconjugated allergens (DP or nDer p2) or conjugates (DP-conj or nDer p2-conj) (all at 10 μg/ml) have been used. Cultures have been incubated for 6 days at 37° C. in 5% CO2 humidified atmosphere and further expanded with rIL-2 25 UI/ml until 14 days when T cell blasts are collected, extensively washed, counted, adjusted at 1×10^6/ml concentration and polyclonally stimulated with PMA and ionomicin as already described to assess the intracellular production of IL-4 and IFN-gamma.

With `CCOCc1nc2c(N)nc3ccccc3c2n1CC(C)(C)O` [Conj R-848, reference compound] as the molecule, how does the “NF-κB expression in TLR8-transfected HEK293 cells” value [1] read?
The value was “able to induce NF-κB expression”.

B1: nDer p2: purified natural allergen Der p2, major allergen from the house dust mite Dermatophagoides pteronyssinus (protein, UniProt P49278 18-146, looked up)
Mite group 2 allergen Der p 2: DQVDVKDCANHEIKKVLVPGCHGSEPCIIHRGKPFQLEAVFEANQNTKTAKIEIKASIDGLEVDVPGIDPNACHYMKCPLVKGQQYDIKYTWNVPKIAPKSENVVVTVKVMGDDGVLACAIATHAKIRD
modifications: natural purified
notes: purified natural allergen Der p2, major allergen from the house dust mite Dermatophagoides pteronyssinus
What does the source list for B1?
Clonal Efficiency (%) ([2]; Donor one): 30%; Clonal Efficiency (%) ([2]; Donor two): 24%; clones producing IL-4 alone ([2]; donor one, PMA and anti-CD3): 56.7%; clones producing IL-4 together with IFN-gamma (TH0 phenotype) ([2]; donor one, PMA and anti-CD3): 29.7%; clones able to produce IL-4 alone or together with IFN-gamma ([2]; donor two, PMA and anti-CD3): 75%; % of cells expressing IFN-gamma+ ([3]; Donor #3, CRTH2 cells): 5.8%; % of cells expressing IL-4+ ([3]; Donor #3, CRTH2 cells): 47.6%; % of cells expressing IL-4+ IFN-gamma+ ([3]; Donor #3, CRTH2 cells): 1.3%; % of cells expressing IFN-gamma+ ([3]; Donor #4, CRTH2 cells): 2.0%; % of cells expressing IL-4+ ([3]; Donor #4, CRTH2 cells): 78.2%; % of cells expressing IL-4+ IFN-gamma+ ([3]; Donor #4, CRTH2 cells): 2.3%
